Measurements as given in patent US20100297712A1.

How the values were obtained:
[1] = biological target: vitamin D3 hydroxylase (VDH) of Pseudonocardia autotrophica NBRC12743 strain (Pseudonocardia autotrophica) (UniProt C4B644); assay: cell-based or functional assay
[2] = biological target: T1, vitamin D3 hydroxylase (VDH) of Pseudonocardia autotrophica NBRC12743 strain
T1 chain: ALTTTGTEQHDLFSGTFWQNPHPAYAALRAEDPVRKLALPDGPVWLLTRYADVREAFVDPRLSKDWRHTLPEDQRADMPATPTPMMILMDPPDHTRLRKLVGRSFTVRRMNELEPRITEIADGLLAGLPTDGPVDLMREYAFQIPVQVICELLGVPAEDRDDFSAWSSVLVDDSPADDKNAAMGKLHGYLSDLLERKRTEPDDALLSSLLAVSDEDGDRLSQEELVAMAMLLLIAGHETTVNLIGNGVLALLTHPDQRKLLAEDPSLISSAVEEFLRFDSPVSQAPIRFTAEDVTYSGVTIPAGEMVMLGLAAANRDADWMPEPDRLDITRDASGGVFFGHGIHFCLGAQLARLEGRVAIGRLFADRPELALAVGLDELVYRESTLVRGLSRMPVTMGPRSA

[3] = biological target: T2, ferredoxin (ThcC) derived from Rhodococcus erythropolis strain NI86/21, P43493
T2 chain: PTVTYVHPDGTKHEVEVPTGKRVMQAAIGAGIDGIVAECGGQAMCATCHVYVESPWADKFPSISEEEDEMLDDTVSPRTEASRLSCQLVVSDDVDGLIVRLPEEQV

Which relative activity per expressed VDH, against the transformant expressing VDH solely [1] does the source give for “ferredoxin (ThcC) derived from Rhodococcus erythropolis strain NI86/21 (from UniProt P43493 2-107)” here?
The relative activity per expressed VDH, against the transformant expressing VDH solely was 6 fold.

B1: ferredoxin reductase (ThcD) derived from Rhodococcus erythropolis strain NI86/21 (protein)
chain: SIVIIGSGQAGFEAAVSLRSHGFSGTITLVGDEPGVPYQRPPLSKAYLHSDPDRESLALRPAQYFDDHRITLTCGKPVVRIDRDAQRVELIDATAIEYDHLILATGARNRLLPVPGANLPGVHYLRTAGEAESLTSSMASCSSLVVIGAGFIGLEVAAAARKKGLDVTVVEAMDRPMARALSSVMSGYFSTAHTEHGVHMRLSTGVKTINAADGRAAGVTTNSGDVIHADAVVVGIGVVPNIELAALTGLPVDNGIVVDEYLRTPDENISAIGDCAAYPIPGKAGLVRLESVQNAVDQARCLAAQLTGTSTHYRSVPWFWSEQYESKLQMAGLTAGADTHVVRGSVDSGVFSIFCFLGTRLLGVESVNKPRDHMAARKILATEMPLTPEQAADTDFDLKLAIARHKDTHKDEVASADIGERQVVAS
B1 was tested. Which Activity (mmol/min/mol of VDH), VD3 conversion by Rhodococcus erythropolis transformant pTipQT-VDH-thcCD (mmol/min/mol of VDH) [2] did it give?
The Activity (mmol/min/mol of VDH), VD3 conversion by Rhodococcus erythropolis transformant pTipQT-VDH-thcCD (mmol/min/mol of VDH) was 119.

And the relative activity per expressed VDH, against the transformant expressing VDH solely [2]?
Its relative activity per expressed VDH, against the transformant expressing VDH solely is 6 fold.

B2: vitamin D3 hydroxylase (VDH) of Pseudonocardia autotrophica NBRC12743 strain (protein)
chain: ALTTTGTEQHDLFSGTFWQNPHPAYAALRAEDPVRKLALPDGPVWLLTRYADVREAFVDPRLSKDWRHTLPEDQRADMPATPTPMMILMDPPDHTRLRKLVGRSFTVRRMNELEPRITEIADGLLAGLPTDGPVDLMREYAFQIPVQVICELLGVPAEDRDDFSAWSSVLVDDSPADDKNAAMGKLHGYLSDLLERKRTEPDDALLSSLLAVSDEDGDRLSQEELVAMAMLLLIAGHETTVNLIGNGVLALLTHPDQRKLLAEDPSLISSAVEEFLRFDSPVSQAPIRFTAEDVTYSGVTIPAGEMVMLGLAAANRDADWMPEPDRLDITRDASGGVFFGHGIHFCLGAQLARLEGRVAIGRLFADRPELALAVGLDELVYRESTLVRGLSRMPVTMGPRSA
With B2 as the molecule, how does the Activity (mmol/min/mol of VDH), VD3 conversion by Rhodococcus erythropolis transformant pTipQT-VDH-thcCD (mmol/min/mol of VDH) [3] read?
The Activity (mmol/min/mol of VDH), VD3 conversion by Rhodococcus erythropolis transformant pTipQT-VDH-thcCD (mmol/min/mol of VDH) was 119.
